The values below are quoted from earlier work in article doi:10.1101/2023.01.28.526057v3 (bioRxiv, 2023).

For the data set the following is noted: rat modeling parameter, Table S7, column PBS.

Regarding liraglutide, the “t1/2 in SC” value was 57.02 s.
